Here are results for one molecule from article PMC6373145.

This test has as its target T1, recombinant GST-tagged human occludin (human), Q16625.
T1 chain: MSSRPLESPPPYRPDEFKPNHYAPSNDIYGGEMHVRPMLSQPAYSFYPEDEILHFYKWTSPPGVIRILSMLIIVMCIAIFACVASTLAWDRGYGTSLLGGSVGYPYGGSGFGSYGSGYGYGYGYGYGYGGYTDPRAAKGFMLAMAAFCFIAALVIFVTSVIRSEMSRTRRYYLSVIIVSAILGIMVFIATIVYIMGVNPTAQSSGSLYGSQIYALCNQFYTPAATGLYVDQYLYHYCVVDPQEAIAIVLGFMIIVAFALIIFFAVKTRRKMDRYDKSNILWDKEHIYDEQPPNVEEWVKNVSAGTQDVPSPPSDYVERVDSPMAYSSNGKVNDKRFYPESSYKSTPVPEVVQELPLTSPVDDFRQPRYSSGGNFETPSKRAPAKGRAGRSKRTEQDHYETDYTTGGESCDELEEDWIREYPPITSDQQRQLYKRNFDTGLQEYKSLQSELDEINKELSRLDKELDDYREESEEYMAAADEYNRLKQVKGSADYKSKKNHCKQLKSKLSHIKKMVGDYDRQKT
The test is described as follows: SDS-PAGE and immunoblot; recombinant GST-occludin in 50 mM HEPES pH 7.4, 16 h at 37 °C, with or without purified HtrA; 12% SDS-PAGE, blots with α-occludin H-279 and α-GST. The following applies: remark: other sources report otherwise.

B1: recombinant GST-tagged human occludin, Q16625 1-522 (natural protein)
chain: MSSRPLESPPPYRPDEFKPNHYAPSNDIYGGEMHVRPMLSQPAYSFYPEDEILHFYKWTSPPGVIRILSMLIIVMCIAIFACVASTLAWDRGYGTSLLGGSVGYPYGGSGFGSYGSGYGYGYGYGYGYGGYTDPRAAKGFMLAMAAFCFIAALVIFVTSVIRSEMSRTRRYYLSVIIVSAILGIMVFIATIVYIMGVNPTAQSSGSLYGSQIYALCNQFYTPAATGLYVDQYLYHYCVVDPQEAIAIVLGFMIIVAFALIIFFAVKTRRKMDRYDKSNILWDKEHIYDEQPPNVEEWVKNVSAGTQDVPSPPSDYVERVDSPMAYSSNGKVNDKRFYPESSYKSTPVPEVVQELPLTSPVDDFRQPRYSSGGNFETPSKRAPAKGRAGRSKRTEQDHYETDYTTGGESCDELEEDWIREYPPITSDQQRQLYKRNFDTGLQEYKSLQSELDEINKELSRLDKELDDYREESEEYMAAADEYNRLKQVKGSADYKSKKNHCKQLKSKLSHIKKMVGDYDRQKT
Turning to B1, the stoichiometry N – broadly, a count of units in the complex or per binding partner – stood at 2.
